Reference: publication PMC6910923, “Novel halo- and thermo-tolerant Cohnella sp. A01 L-glutaminase: heterologous expression and biochemical characterization” (Scientific Reports, 2019)

System: NC(=O)CC[C@H](N)C(=O)O
Assay: purified protein
Settings: MgCl2 present, 0-25 mM substrate, standard assay pH 8 phosphate, 50 °C

rSAM (L-glutaminase) (Cohnella sp.) was tested. Which Km did it give?
Its Km is 1800 µM.
